The source of these data is patent US20220372138A1 (IOMX THERAPEUTICS, published 2022).

In test [1] the target is T1, murine IGSF11 expressed on cells (mouse, UniProt P0C673 23-428).
T1 construct: MC38-IGSF11, CT26-IGSF11, MC38-wt (naturally expresses murine IGSF11)
T1 sequence: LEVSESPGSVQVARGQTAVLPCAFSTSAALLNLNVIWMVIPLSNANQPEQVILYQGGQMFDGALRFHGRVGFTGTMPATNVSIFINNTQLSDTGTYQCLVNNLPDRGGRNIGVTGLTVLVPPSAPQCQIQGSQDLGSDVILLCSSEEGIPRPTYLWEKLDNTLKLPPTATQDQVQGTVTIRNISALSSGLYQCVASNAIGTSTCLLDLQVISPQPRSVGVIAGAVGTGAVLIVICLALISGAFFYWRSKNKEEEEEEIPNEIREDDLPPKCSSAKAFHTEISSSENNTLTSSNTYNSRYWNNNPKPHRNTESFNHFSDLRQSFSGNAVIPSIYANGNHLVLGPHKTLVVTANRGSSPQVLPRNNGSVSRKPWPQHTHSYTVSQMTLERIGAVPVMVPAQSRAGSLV
Kind of test: IgG FACS MC38-IGSF11.
Description: (§1) Unbound antibodies were removed by washing the cells three time with FACS buffer. Bound antibodies were detected with a mouse anti-human IgG antibody conjugated with AlexaFluor647.

The target of test [2] is T1, murine IGSF11 expressed on cells. Description: IgG FACS CT26-IGSF11.
Description: as §1
The target in test [3] is T2, human IGSF11 (VSIG3) expressed on cells (human, UniProt Q5DX21 23-431).
T2 sequence: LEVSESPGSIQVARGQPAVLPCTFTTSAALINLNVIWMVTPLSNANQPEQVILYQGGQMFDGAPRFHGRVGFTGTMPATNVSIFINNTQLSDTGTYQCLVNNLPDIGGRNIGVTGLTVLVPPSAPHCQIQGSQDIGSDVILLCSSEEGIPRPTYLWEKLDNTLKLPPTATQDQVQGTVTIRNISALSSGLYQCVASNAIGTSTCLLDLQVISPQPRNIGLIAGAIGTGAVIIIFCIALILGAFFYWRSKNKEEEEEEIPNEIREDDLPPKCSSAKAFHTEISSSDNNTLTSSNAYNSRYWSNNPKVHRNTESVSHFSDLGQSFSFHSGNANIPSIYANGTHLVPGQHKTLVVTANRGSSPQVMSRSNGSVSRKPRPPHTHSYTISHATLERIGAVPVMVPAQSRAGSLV
Kind of test: IgG1 FACS HEK-OE.

Test [4] deals with T3, IgC2 domain of human IGSF11 fused to murine IgG2a Fc (human, UniProt Q5DX21 137-241).
T3 construct: not shown: murine IgG2a Fc-region
T3 sequence: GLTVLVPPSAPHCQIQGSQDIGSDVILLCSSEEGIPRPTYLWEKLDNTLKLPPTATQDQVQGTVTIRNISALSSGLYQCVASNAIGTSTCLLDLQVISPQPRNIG
Description: IgG ELISA.

The target in test [5] is T4, full-length ECD of human IGSF11 fused to murine Fc (human, UniProt Q5DX21 23-241).
T4 construct: also called Fc-fusion IGSF11 ECD; not shown: murine Fc
T4 sequence: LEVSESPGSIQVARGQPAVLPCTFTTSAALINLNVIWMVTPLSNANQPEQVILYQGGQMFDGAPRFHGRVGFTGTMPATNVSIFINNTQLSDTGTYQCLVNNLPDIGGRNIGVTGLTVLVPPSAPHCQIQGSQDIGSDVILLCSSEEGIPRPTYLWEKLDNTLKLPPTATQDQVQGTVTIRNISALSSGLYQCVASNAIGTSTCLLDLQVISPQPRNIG
Kind of test: IgG ELISA. A general note: In an ELISA, binding on a coated surface is turned into a signal by an enzyme label.

Test [6] has as its target T5, human IGSF11 (VSIG3) ECD, His-tagged (human, UniProt Q5DX21 23-241).
T5 construct: in part bought (SinoBiological 13094-H08H); also called HIS-IGSF11; IGSF11-HIS; not shown: His tag
T5 sequence: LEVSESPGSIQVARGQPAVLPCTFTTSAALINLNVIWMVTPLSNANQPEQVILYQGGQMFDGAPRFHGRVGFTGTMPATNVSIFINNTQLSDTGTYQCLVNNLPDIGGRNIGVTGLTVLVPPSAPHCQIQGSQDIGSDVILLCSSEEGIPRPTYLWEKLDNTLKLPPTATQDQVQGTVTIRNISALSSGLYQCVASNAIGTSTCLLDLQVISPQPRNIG
Description: IgG1 ELISA EC50 0.02-0.05 nM.

For test [7], the target named is Streptavidin (UniProt P22629 37-163, limits assumed). Description: Fab ELISA.
Streptavidin, sequence (P22629 37-163 limits assumed): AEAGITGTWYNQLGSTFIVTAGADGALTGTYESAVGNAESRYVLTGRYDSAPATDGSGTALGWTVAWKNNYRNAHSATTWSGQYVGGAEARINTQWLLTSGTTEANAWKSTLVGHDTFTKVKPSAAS
Test [8] deals with T6, extracellular domain (ECD) of human IGSF11 (VSIG3), recombinant (human, UniProt Q5DX21 23-241).
T6 construct: biotinylated where captured on streptavidin; tags of the reagent not always stated; also called IGSF11 (ECD domain); ECD-IGSF11
T6 sequence: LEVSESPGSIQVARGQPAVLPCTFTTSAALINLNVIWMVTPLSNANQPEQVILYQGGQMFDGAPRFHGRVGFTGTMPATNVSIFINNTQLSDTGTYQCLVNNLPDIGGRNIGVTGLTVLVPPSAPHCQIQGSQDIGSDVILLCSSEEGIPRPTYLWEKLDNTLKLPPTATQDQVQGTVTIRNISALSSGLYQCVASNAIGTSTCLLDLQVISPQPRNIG
Kind of test: Fab ELISA.

Test [9] concerns the target T5, human IGSF11 (VSIG3) ECD, His-tagged. Kind of test: IgG1 ELISA EC50 <0.02 nM.
Test [10] deals with T2, human IGSF11 (VSIG3) expressed on cells. Kind of test: IgG1 FACS DMS 273.
For test [11], the target named is T4, full-length ECD of human IGSF11 fused …. Kind of test: IgG ELISA. This is another data set of the same source.
Description: Binding of IgG antibodies to each of the full-length ECD of IGSF11, to the IgV domain of IGSF11 and to the IgC2 domain of IGSF11, was tested in the ELISA assay as follows: briefly, recombinant domains of Fc-fusion IGSF11 proteins were coated at 2 ug/mL on a 384-well Maxisorp plate. The surface was blocked with 2% (w/v) skim milk powder in PBST. […] After removing all unbound antibodies by 3 wash cycles with PBST, bound IgG ABPs were detected with a goat anti-human IgG antibody conjugated with horseradish peroxidase. After three wash cycles with PBST the ELISA was developed with TMB substrate.
In test [12] the target is T7, IgV domain of human IGSF11 fused to murine IgG2a Fc (human, UniProt Q5DX21 23-143).
T7 construct: not shown: murine IgG2a Fc-region
T7 sequence: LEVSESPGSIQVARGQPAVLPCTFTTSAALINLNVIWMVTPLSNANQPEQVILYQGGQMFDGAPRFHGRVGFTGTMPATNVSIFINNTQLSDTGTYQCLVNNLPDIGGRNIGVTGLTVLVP
Description: IgG ELISA.

Test [13] deals with T2, human IGSF11 (VSIG3) expressed on cells. Description: IgG FACS MDA-MB-231-IGSF11.
Description: as §1
Test [14] shares this target. Description: FACS, DMS 273 cells with scrambled control siRNA (SC).
Test [15] shares this target. Kind of test: FACS, M579-A2-luc cells with IGSF11 siRNA (KD, knock-down control). (Flow cytometry measures light scatter and fluorescence of single cells or particles in a stream.)
Test [16] has the same target. Kind of test: FACS, M579-A2-luc cells with scrambled control siRNA (SC).
Test [17] shares this target. Description: FACS, DMS 273 cells with IGSF11 siRNA (KD, knock-down control).
The target of test [18] is T5, human IGSF11 (VSIG3) ECD, His-tagged. Description: ELISA: IGSF11-HIS coated, IgG1 dilution series, anti-human antibody-HRP, TMB.
Test [19] shares this target. Description: blocking ELISA: VSIR-Fc immobilised, IgG dilution series pre-incubated with 200 nM IGSF11 ECD-His, bound IGSF11 detected with anti-His-HRP.

Like-named read-outs stand apart in the source and are kept apart here. Where only a bound is given, the exact number is not on record here.

What is called EC50 is the concentration that produces a half-maximal response. Read a high EC50 as a need for much substance. What is called EC50 (read off the curve) is the concentration that produces a half-maximal response. Low readings indicate an effect from little substance, high ones a need for much substance.

B1: C-016 (IgG1 format) (antibody, V domains shown)
VH: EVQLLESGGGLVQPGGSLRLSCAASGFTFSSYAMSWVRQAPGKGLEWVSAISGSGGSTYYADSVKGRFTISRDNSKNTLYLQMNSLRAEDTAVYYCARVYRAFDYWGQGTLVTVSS
VL: ASVLTQPPSVSAAPGQKVTISCSGSSSNIGNNYVSWYQQLPGTAPKLLIYDNNKRPSGIPDRFSGSKSGTSATLGITGLQAEDEADYYCHLYTEAESHWVFGGGTKLTVL
On to B1, for which the figures for the EC50 in test [1] and in test [2] were 50 to 100 nM and 20 to 50 nM, respectively.

B2: A-035 (IgG1 format) (antibody, V domains shown)
VH: QVQLVQSGAEVKKPGASVKVSCKASGYTFTGYYMHWVRQAPGQGLEWMGWINPNSGNTGYAQKFQGRVTMTRNTSISTAYMELSSLRSEDTAVYYCARGRLERGYWYFDLWGRGTLVTVSS
VL: NFMLTQPHSVSESPGRTVTISCTRSSGSITSNYVQWYQQRPGSAPTILIYEDKERPSEVPDRFSGSIDISSNSASLTISGLKTEDEADYYCQSYGGTSQGVLFGGGTKVTVL
notes: human IgG1 format
Consider B2, for which the concentration giving a half-maximal response (EC50) was more than 50 nM in test [3], 20 to 100 nM in test [4], 1 to 20 nM in test [5] and 0.02 to 0.05 nM in test [6].

B3: C-013 (Fab format) (Fab, V domains shown)
VH: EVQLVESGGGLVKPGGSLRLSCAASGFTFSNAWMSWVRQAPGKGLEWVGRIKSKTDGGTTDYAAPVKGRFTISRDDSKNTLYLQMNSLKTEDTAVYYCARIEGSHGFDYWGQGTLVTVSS
VL: SYELTQPPSVSVSPGQTASITCSGDKLGDKYASWYQQKPGQSPVLVIYQDSKRPSGIPERFSGSNSGNTATLTISGTQAEDEADYYCASYLHTPKQFVFGGGTKLTVL
notes: Fab from E. coli lysate
For the molecule B3, the values for the A450 in [7] and in [8] were less than 0.1 and less than 1, respectively.

B4: A-022 (IgG1 format) (antibody, V domains shown)
VH: EVQLLESGPGLVKPSQTLSLTCTVSGGSISSGGYYWSWIRQHPGKGLEWIGYIYYSGSTYYNPSLKSRVTISVDTSKNQFSLKLSSVTAADTAVYYCARASRSTDYYFDYWGQGTLVTVSS
VL: QPGLTQPPSMSYGLGQTATLTCTGNRNNIGDQGAAWLQQHQGHPPKLLSYRNNNGPSGISERLSASRSGNTASLTISGLQPEDEADYYCSAWDSSLRAWVFGGGTKLTVL
notes: human IgG1 format
Consider B4, for which the EC50 in test [3] was 10 to 50 nM; in test [4] it was less than 1 nM; in test [5] it was less than 1 nM; in test [9], less than 0.02 nM; in test [10], 10 to 50 nM.

B5: C-017 (IgG1 format) (antibody, V domains shown)
VH: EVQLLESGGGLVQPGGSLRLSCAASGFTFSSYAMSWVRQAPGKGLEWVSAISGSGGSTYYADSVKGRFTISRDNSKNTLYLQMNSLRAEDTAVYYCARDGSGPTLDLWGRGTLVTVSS
VL: DIQMTQSPSSLSASVGDRVTITCRASQSISSYLNWYQQKPGKAPKLLIYAASSLQSGVPSRFSGSGSGTDFTLTISSLQPEDFATYYCQQHRYIPPWTFGQGTKVEIK
With B5, the EC50 was 1 to 20 nM in [11]; 1 to 20 nM in [12]; 50 to 100 nM in test [1]; 15 to 25 nM in [13]; 20 to 50 nM in [2].

B6: A-027 (IgG1 format) (antibody, V domains shown)
VH: QVQLVQSGAEVKKPGSSVKVSCKASGGTFSSYAISWVRQAPGQGLEWMGGIIPIFGTANYAQKFQGRVTITADKSTSTAYMELSSLRSEDTAVYYCARARGSTWGYFDYWGQGTLVTVSS
VL: EIVLTQSPASLSLSPGERVTLSCRASQSVSNYLAWYQQKPGQAPRLLIYDASNRATGIPARFSGSGSGTDFTLTISSLEPEDFAVYYCQQRDNWPLTFGGGTKVEIK
notes: human IgG1 format
Consider B6, for which the “% binding (FACS heat-map)” value in test [14] is 14.3%; in [15], 2.5%; in [16], 3.32%; in test [17], 2.63%. The values for the EC50 in [3], in [4] and in test [5] were more than 50 nM, 1 to 20 nM and 1 to 20 nM, respectively.

B7: B-004 (chain-swapped IgG1) (antibody, V domains shown)
VH: EVQLLESGGGLIQPGGSLRLSCAVSGFTVSSNYMSWVRQAPGKGLEWVSVIYSGGSTYYADSVKGRFTISRDNSKNTLYLQMNSLRAEDTAVYYCARGNPYYYGDLQVNFDYWGQGTLVTVSS
VL: QAVVTQEPSLTVSPGGTVTLTCASSTGAVTSGYYPNWFQQKPGQAPRPLIYSTSNKHSWTPARFSGSLLGGKAALTLSGVQPDDEAEYYCLLYYGGDWVFGGGTKLTVL
notes: human IgG1 format; also called B4
As for B7, in test [18], the “EC50 (read off the curve)” value was approximately 0.02 nM. Further, the “IC50 (read off the curve)” value in test [19] is approximately 5 nM.

B8: B-007 (chain-swapped IgG1) (antibody, V domains shown)
VH: EVQLVESGGGLIQPGGSLRLSCAASGFTVSSNYMSWVRQAPGKGLEWVSVIYSGGSTYYADSVKGRFTISRDNSKNTLYLQMNSLRAEDTAVYYCARGNPYYYGDLQVNFDYWGQGTLVTVSS
VL: QAVVTQEPSLTVSPGGTVTLTCASSTGAVTSAYYPNWFQQKPGQAPRALIYSTSNKHSWTPARFSGSLLGGKAALTLSGVQPEDEADYYCLLYYGGAWVFGGGTKLTVL
notes: human IgG1 format; also called B7
In the case of B8, in test [18], the “EC50 (read off the curve)” value is approximately 0.01 nM. Also, the “IC50 (read off the curve)” value in [19] is approximately 3 nM.

B9: B-006 (chain-swapped IgG1) (antibody, V domains shown)
VH: EVQLVESGGGLIQPGGSLRLSCAASGFTVSSNYMSWVRQAPGKGLEWVSVIYSGGSTYYADSVKGRFTISRDNSKNTLYLQMNSLRAEDTAVYYCARGNPYYYGDLQVNFDYWGQGTLVTVSS
VL: QAVVTQEPSLTVSPGETVTLTCASSTGAVTSGYYPNWFQQRPGQAPRALIYSTSNKDSWTPARFSGSLLGGKAALTLSGVQPEDEAEYYCLLYYGGAWVFGGGTKLTVL
notes: human IgG1 format; also called B6
B9: the “EC50 (read off the curve)” value in [18] was approximately 0.02 nM. Also, the “IC50 (read off the curve)” value in test [19] was approximately 5 nM.

B10: B-008 (chain-swapped IgG1) (antibody, V domains shown)
VH: EVQLVESGGGLIQPGGSLRLSCAASGFTVSSNYMSWVRQAPGKGLEWVSVIYSGGSTYYADSVKGRFTISRDNSKNTLYLQMNSLRAEDTAVYYCARGNPYYYGDLQVNFDYWGQGTLVTVSS
VL: QAVVTQEPSLTVSPGGTVTPTCGSSTGAVTSGNLPNWFQQKPGQAPRALIYSTSNKHSWTPARISGSLLGGKAALTLSGVQPEDEAEYYCLLYYGGAWVFGGGTKLTVL
notes: human IgG1 format; also called B8
On to B10, for which the “IC50 (read off the curve)” value in test [19] was approximately 4 nM.
